{"source": "paper PMC8622885", "target": "thermostable exoshell (tES) (Archaeoglobus fulgidus) (UniProt O29424)", "sequence (O29424 entry or part of it)": "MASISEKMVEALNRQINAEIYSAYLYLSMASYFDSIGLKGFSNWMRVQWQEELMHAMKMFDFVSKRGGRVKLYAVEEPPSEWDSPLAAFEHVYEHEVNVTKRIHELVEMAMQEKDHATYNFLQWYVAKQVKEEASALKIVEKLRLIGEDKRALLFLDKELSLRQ", "assay": "AUC; unpublished observations; no conditions given"}
{"substance": "horseradish peroxidase (HRP) (from UniProt P00433 31-338) (enzyme)", "values": [{"measurement": "stoichiometry N (HRP molecules per tES)", "result": 2}]}
